Experiments:
[1] = target: Rabin8 (Rab3IP) 144-460 (UniProt Q96QF0); assay: Ni2+-NTA pull-down by His-Rabin8; conditions: reference: non-phosphorylated Rab8a; sites T72
[2] = target: T1, LRRK2 (Homo sapiens, UniProt Q5S007, G2019S); assay: in vitro kinase assay with recombinant LRRK2 and Rab10, inhibitor at […]; assay type: biochemical
T1 construct: GST-LRRK2 (residues 960-2527)

[3] = target: HIS-tagged Rabin8 (residues 144-460) (human) (UniProt Q96QF0)
HIS-tagged Rabin8 (residues 144-460) (human), sequence (Q96QF0 144-460): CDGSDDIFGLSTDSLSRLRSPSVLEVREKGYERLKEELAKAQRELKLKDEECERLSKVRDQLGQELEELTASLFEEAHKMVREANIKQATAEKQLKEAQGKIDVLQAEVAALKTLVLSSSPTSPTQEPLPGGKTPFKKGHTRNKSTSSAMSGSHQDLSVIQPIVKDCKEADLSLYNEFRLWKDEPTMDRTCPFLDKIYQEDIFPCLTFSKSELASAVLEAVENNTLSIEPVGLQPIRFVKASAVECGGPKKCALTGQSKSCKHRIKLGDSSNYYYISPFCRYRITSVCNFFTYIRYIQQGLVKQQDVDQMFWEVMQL

T1 sequence (Q5S007 960-2527 G2019S): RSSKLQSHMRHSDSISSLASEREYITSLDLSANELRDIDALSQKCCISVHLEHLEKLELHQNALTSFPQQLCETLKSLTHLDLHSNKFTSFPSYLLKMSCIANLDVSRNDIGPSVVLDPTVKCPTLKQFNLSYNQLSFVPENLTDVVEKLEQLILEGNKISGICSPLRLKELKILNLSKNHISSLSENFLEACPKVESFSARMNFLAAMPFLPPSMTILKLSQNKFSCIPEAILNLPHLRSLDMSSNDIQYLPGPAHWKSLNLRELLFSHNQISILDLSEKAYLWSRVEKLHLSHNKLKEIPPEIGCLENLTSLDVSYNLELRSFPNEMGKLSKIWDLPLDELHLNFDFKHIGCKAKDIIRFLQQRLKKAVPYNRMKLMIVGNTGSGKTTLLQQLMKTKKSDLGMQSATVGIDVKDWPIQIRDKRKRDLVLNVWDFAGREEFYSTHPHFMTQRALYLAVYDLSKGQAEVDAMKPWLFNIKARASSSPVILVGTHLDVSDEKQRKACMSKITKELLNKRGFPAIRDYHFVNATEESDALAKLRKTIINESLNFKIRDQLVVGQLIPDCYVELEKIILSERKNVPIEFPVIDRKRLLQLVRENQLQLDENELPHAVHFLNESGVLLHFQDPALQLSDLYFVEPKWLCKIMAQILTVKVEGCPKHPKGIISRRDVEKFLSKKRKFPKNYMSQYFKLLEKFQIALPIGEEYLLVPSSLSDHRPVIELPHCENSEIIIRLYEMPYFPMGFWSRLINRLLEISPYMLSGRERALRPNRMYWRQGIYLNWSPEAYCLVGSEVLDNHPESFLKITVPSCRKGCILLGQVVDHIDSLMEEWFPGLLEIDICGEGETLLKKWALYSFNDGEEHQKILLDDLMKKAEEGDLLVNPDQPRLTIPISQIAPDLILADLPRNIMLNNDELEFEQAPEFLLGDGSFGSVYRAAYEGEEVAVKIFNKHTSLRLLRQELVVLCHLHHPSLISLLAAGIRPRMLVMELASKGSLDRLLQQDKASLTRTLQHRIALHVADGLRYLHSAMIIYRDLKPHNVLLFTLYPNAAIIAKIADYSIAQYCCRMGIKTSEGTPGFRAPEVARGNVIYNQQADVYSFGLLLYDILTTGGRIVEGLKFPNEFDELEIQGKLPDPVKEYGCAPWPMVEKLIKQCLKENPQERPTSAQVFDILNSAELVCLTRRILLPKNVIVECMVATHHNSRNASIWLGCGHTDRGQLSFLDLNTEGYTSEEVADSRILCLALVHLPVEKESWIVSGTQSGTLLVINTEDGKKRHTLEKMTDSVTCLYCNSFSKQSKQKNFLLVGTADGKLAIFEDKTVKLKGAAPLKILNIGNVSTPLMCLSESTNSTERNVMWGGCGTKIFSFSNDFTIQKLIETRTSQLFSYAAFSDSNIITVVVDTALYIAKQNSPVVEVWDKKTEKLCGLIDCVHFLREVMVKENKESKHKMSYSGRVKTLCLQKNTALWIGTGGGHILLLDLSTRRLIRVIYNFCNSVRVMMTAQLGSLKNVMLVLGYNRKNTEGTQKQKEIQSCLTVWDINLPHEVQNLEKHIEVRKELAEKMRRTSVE

Rab8a 1-183 (from UniProt P61006) LRRK2-G2019S-phosphorylated, ion-exchange-enriched pT72-Rab8a
binding against the reference [1]: weaker

O=C(Nc1cccnc1)c1cc(-c2ccnc(F)c2)ccc1OCc1ccccc1 [GSK2578215A]
in vitro kinase assay with recombinant LRRK2 and Rab10, inhibitor at 2 μM [2]: Inhibition of LRRK2-G2019S by GSK2578215A or HG-10-102-01 prevents phosphorylation.

Rab8a (1-183) quantitatively phosphorylated pT72 (from UniProt P61006 1-183) (domain or fragment)
rate of Rabin8-catalyzed mant-GDP exchange (GEF assay with Rabin8 144-245, 2 μM), T72-phosphorylated against non-phosphorylated Rab8a (1-183): inhibition [3]: 4 fold
